For experiment [1], the target named is soluble human BLyS (human) (UniProt Q9Y275). Description: DELFIA competition, Eu-hBLyS binding to coated BCMA.
Experiment [2] has as its target soluble mouse BLyS (mouse) (UniProt Q9WU72). Description: DELFIA competition, Eu-mBLyS binding to coated TACI.
For experiment [3] the target is unchanged. Description: DELFIA competition, Eu-mBLyS binding to coated BCMA.
Experiment [4] has the same target. Kind of experiment: DELFIA competition, Eu-mBLyS binding to coated BR3.
The target in experiment [5] is soluble human BLyS (human) (UniProt Q9Y275). Description: DELFIA competition, Eu-hBLyS binding to coated TACI.
Experiment [6] has the same target. Description: DELFIA competition, Eu-hBLyS binding to coated BR3.

pIC50: −log10 of the molar value.

The pIC50 is the negative decadic logarithm of the IC50, by convention in mol/L.

With AMG623, the negative logarithm of the IC50 (pIC50) in experiment [1] was > 12.52; in experiment [2] it was > 12.52; in experiment [3], 10.94; in experiment [4] it was 9.83; in experiment [5], > 12.52; in experiment [6] it was 11.03.
For TACI-Ig (Fc fusion), the negative logarithm of the IC50 (pIC50) in experiment [1] was 9.95; in experiment [2] it was 10.80; in experiment [3], 9.11; in experiment [4], 9.29; in experiment [5], 10.89; in experiment [6], 9.80.

The values are drawn from patent US20170101466A1.
